In the supplement of paper PMC10724198 one finds protein stability index data, which are given here for 15 sequences.

± gives the standard deviation of the averaged measurements.

The subject of series [1] is Saccharomyces cerevisiae. Put plainly: protein stability index of tFT-peptide fusion (C-terminal peptide) (PSI (0-1 scale)); higher = more stable (slower turnover). As for the experimental part: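 MPS profiling in S. cerevisiae of the tFT-X12 degron library: putative degron peptides plus stable controls, 12 aa, fused to the C-terminus of a sfGFP-mCherry timer. Cells are FACS-sorted into 8 mCherry/sfGFP bins and deep-sequenced. PSI runs from 0 (unstable) to 1 (stable). Backgrounds are wild type, das1Δ and doa10Δ at 30 °C, and wild type, das1Δ, cdc34-1 and cdc53-1 at 37 °C; 2-3 technical replicates each.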

In series [2] the test system is Saccharomyces cerevisiae. Described as above. The note with it: genetic background: wild type; temperature: 30 C.
Setting [3] is: genetic background: cdc34-1, temperature: 37 C.
The mark [4] stands for this setting: genetic background: cdc53-1, temperature: 37 C.
Setting [5] is: genetic background: das1 deletion, temperature: 30 C.
Setting [6] is: genetic background: das1 deletion, temperature: 37 C.
Setting [7] is: genetic background: doa10 deletion, temperature: 30 C.
Setting [8] is: genetic background: wild type, temperature: 30 C.
Setting [9] is: genetic background: wild type, temperature: 37 C.
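Note: PSI is a weighted mean of sequencing reads over stability bins, variants kept only with over 10 reads, mCherry proximal and sfGFP distal, peptide attached via GGGS linker.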

Consider TCFVKLLPFLVL, for which the protein stability index with Saccharomyces cerevisiae [1] (setting [3]) was 0.549 ± 0.052; with Saccharomyces cerevisiae [1] (setting [4]), 0.562 ± 0.011; in the series on Saccharomyces cerevisiae [1] (setting [5]), 0.456 ± 0.02; in the series with Saccharomyces cerevisiae [1] (setting [6]) it was 0.608 ± 0.024; with Saccharomyces cerevisiae [1] (setting [7]), 0.4425 ± 0.0032; in the series on Saccharomyces cerevisiae [1] (setting [8]) it was 0.442 ± 0.013. Besides, the protein stability index was found to be 0.5482 ± 0.0021 in the series on Saccharomyces cerevisiae [1] (setting [9]) and 0.546 ± 0.067 in the series with Saccharomyces cerevisiae [2].
On to TCRASLRRIVVA, for which the protein stability index in the series with Saccharomyces cerevisiae [1] (setting [3]) stood at 0.514 ± 0.024; in the series with Saccharomyces cerevisiae [1] (setting [4]), 0.538 ± 0.03; in the series on Saccharomyces cerevisiae [1] (setting [5]), 0.381 ± 0.031; in the series on Saccharomyces cerevisiae [1] (setting [6]), 0.5813 ± 0.0056; with Saccharomyces cerevisiae [1] (setting [7]), 0.222 ± 0.01; in the series with Saccharomyces cerevisiae [1] (setting [8]), 0.255 ± 0.042. Further, the results for the protein stability index with Saccharomyces cerevisiae [1] (setting [9]) and with Saccharomyces cerevisiae [2] were 0.459 ± 0.015 and 0.358 ± 0.034, respectively.
On to TFRVLREIILTA, for which the protein stability index was determined as 0.2 ± 0.021 in the series on Saccharomyces cerevisiae [1] (setting [3]); 0.228 ± 0.021 with Saccharomyces cerevisiae [1] (setting [4]); 0.206 ± 0.029 in the series with Saccharomyces cerevisiae [1] (setting [5]); 0.33 ± 0.023 in the series with Saccharomyces cerevisiae [1] (setting [6]); 0.151 ± 0.011 in the series on Saccharomyces cerevisiae [1] (setting [7]); 0.178 ± 0.024 with Saccharomyces cerevisiae [1] (setting [8]). In addition, the protein stability index in the series on Saccharomyces cerevisiae [1] (setting [9]) was found to be 0.277 ± 0.0079; with Saccharomyces cerevisiae [2] it was 0.249 ± 0.0078.
As for TPPFFDIFVVLL, the protein stability index in the series with Saccharomyces cerevisiae [1] (setting [3]) is 0.576 ± 0.052; with Saccharomyces cerevisiae [1] (setting [4]), 0.652 ± 0.023; in the series with Saccharomyces cerevisiae [1] (setting [5]) it was 0.463 ± 0.027; in the series with Saccharomyces cerevisiae [1] (setting [6]), 0.6652 ± 0.0032; in the series with Saccharomyces cerevisiae [1] (setting [7]), 0.456 ± 0.021; in the series on Saccharomyces cerevisiae [1] (setting [8]) it was 0.48 ± 0.031. The protein stability index in the series on Saccharomyces cerevisiae [1] (setting [9]) is 0.616 ± 0.043; with Saccharomyces cerevisiae [2], 0.46 ± 0.037.
Turning to TPPIRCRLVRFL, the protein stability index came to 0.656 ± 0.059 in the series with Saccharomyces cerevisiae [1] (setting [3]); 0.735 ± 0.017 in the series on Saccharomyces cerevisiae [1] (setting [4]); 0.626 ± 0.029 in the series with Saccharomyces cerevisiae [1] (setting [5]); 0.7526 ± 0.00097 in the series with Saccharomyces cerevisiae [1] (setting [6]); 0.2071 ± 0.0014 in the series with Saccharomyces cerevisiae [1] (setting [7]); 0.219 ± 0.018 in the series on Saccharomyces cerevisiae [1] (setting [8]). The protein stability index in the series on Saccharomyces cerevisiae [1] (setting [9]) was 0.496 ± 0.0056; with Saccharomyces cerevisiae [2] it was 0.335 ± 0.029.
With TSARPFLYSFRP, the protein stability index with Saccharomyces cerevisiae [1] (setting [3]) stood at 0.69 ± 0.036; in the series with Saccharomyces cerevisiae [1] (setting [4]), 0.7386 ± 0.0065; in the series on Saccharomyces cerevisiae [1] (setting [5]), 0.654 ± 0.018; in the series with Saccharomyces cerevisiae [1] (setting [6]), 0.739 ± 0.0082; in the series with Saccharomyces cerevisiae [1] (setting [7]) it was 0.65 ± 0.016; in the series with Saccharomyces cerevisiae [1] (setting [8]), 0.642 ± 0.019. The protein stability index in the series on Saccharomyces cerevisiae [1] (setting [9]) was found to be 0.705 ± 0.027; in the series on Saccharomyces cerevisiae [2], 0.00961 ± 0.014.
On to TVLPCVLLFLRG, for which the protein stability index in the series with Saccharomyces cerevisiae [1] (setting [3]) was determined as 0.61 ± 0.026; in the series with Saccharomyces cerevisiae [1] (setting [4]) it was 0.632 ± 0.012; in the series on Saccharomyces cerevisiae [1] (setting [5]) it was 0.508 ± 0.035; with Saccharomyces cerevisiae [1] (setting [6]), 0.613 ± 0.0086; in the series with Saccharomyces cerevisiae [1] (setting [7]), 0.506 ± 0.022; in the series on Saccharomyces cerevisiae [1] (setting [8]), 0.484 ± 0.037. Moreover, the results for the protein stability index in the series on Saccharomyces cerevisiae [1] (setting [9]) and with Saccharomyces cerevisiae [2] were 0.603 ± 0.03 and 0.485 ± 0.013, respectively.
Take VAVFFGCCVKVG: the protein stability index stood at 0.149 ± 0.027 with Saccharomyces cerevisiae [1] (setting [3]); 0.18 ± 0.02 in the series with Saccharomyces cerevisiae [1] (setting [4]); 0.191 ± 0.035 with Saccharomyces cerevisiae [1] (setting [5]); 0.3258 ± 0.0018 in the series with Saccharomyces cerevisiae [1] (setting [6]); 0.0877 ± 0.0089 in the series on Saccharomyces cerevisiae [1] (setting [7]); 0.109 ± 0.024 with Saccharomyces cerevisiae [1] (setting [8]). Also, the values for the protein stability index in the series on Saccharomyces cerevisiae [1] (setting [9]) and in the series with Saccharomyces cerevisiae [2] were 0.141 ± 0.019 and 0.156 ± 0.026, respectively.
As to VAVGFVLGLCVV, the protein stability index with Saccharomyces cerevisiae [1] (setting [3]) turned out to be 0.392 ± 0.042; with Saccharomyces cerevisiae [1] (setting [4]) it was 0.418 ± 0.013; in the series on Saccharomyces cerevisiae [1] (setting [5]) it was 0.348 ± 0.03; with Saccharomyces cerevisiae [1] (setting [6]), 0.4701 ± 0.0042; with Saccharomyces cerevisiae [1] (setting [7]) it was 0.31 ± 0.012; with Saccharomyces cerevisiae [1] (setting [8]), 0.35 ± 0.021. The protein stability index with Saccharomyces cerevisiae [1] (setting [9]) was 0.431 ± 0.012; in the series with Saccharomyces cerevisiae [2] it was 0.447 ± 0.011.
Consider VCFLLLLPALLI, for which the protein stability index was 0.466 ± 0.031 in the series on Saccharomyces cerevisiae [1] (setting [3]); 0.465 ± 0.014 in the series with Saccharomyces cerevisiae [1] (setting [4]); 0.398 ± 0.026 with Saccharomyces cerevisiae [1] (setting [5]); 0.516 ± 0.0089 with Saccharomyces cerevisiae [1] (setting [6]); 0.422 ± 0.0094 in the series on Saccharomyces cerevisiae [1] (setting [7]); 0.393 ± 0.016 in the series on Saccharomyces cerevisiae [1] (setting [8]). The values for the protein stability index in the series with Saccharomyces cerevisiae [1] (setting [9]) and with Saccharomyces cerevisiae [2] were 0.512 ± 0.027 and 0.432 ± 0.053, respectively.
On to VCNQVPGVIWFC, for which the protein stability index in the series on Saccharomyces cerevisiae [1] (setting [3]) worked out at 0.683 ± 0.036; with Saccharomyces cerevisiae [1] (setting [4]), 0.771 ± 0.017; in the series on Saccharomyces cerevisiae [1] (setting [5]) it was 0.654 ± 0.018; in the series with Saccharomyces cerevisiae [1] (setting [6]), 0.7556 ± 0.0068; in the series on Saccharomyces cerevisiae [1] (setting [7]), 0.373 ± 0.0045; with Saccharomyces cerevisiae [1] (setting [8]) it was 0.412 ± 0.018. Further, the protein stability index with Saccharomyces cerevisiae [1] (setting [9]) is 0.61183 ± 8.6e-05; in the series on Saccharomyces cerevisiae [2], 0.481 ± 0.022.
VCRFLVSVFSCV: the protein stability index was 0.546 ± 0.042 in the series with Saccharomyces cerevisiae [1] (setting [3]); 0.548 ± 0.02 in the series with Saccharomyces cerevisiae [1] (setting [4]); 0.453 ± 0.02 in the series on Saccharomyces cerevisiae [1] (setting [5]); 0.5763 ± 0.00065 with Saccharomyces cerevisiae [1] (setting [6]); 0.38 ± 0.024 in the series with Saccharomyces cerevisiae [1] (setting [7]); 0.399 ± 0.025 in the series on Saccharomyces cerevisiae [1] (setting [8]). The protein stability index turned out to be 0.5167 ± 0.0027 with Saccharomyces cerevisiae [1] (setting [9]) and 0.439 ± 0.019 in the series on Saccharomyces cerevisiae [2].
Take VCRVAAWLGWFV: the protein stability index in the series on Saccharomyces cerevisiae [1] (setting [3]) was 0.522 ± 0.016; in the series on Saccharomyces cerevisiae [1] (setting [4]), 0.708 ± 0.024; with Saccharomyces cerevisiae [1] (setting [5]), 0.637 ± 0.019; with Saccharomyces cerevisiae [1] (setting [6]) it was 0.7292 ± 0.00075; in the series on Saccharomyces cerevisiae [1] (setting [7]), 0.0897 ± 0.012; in the series on Saccharomyces cerevisiae [1] (setting [8]), 0.0909 ± 0.024. Moreover, the results for the protein stability index in the series with Saccharomyces cerevisiae [1] (setting [9]) and in the series on Saccharomyces cerevisiae [2] were 0.1636 ± 0.0013 and 0.175 ± 0.025, respectively.
Regarding VEFSLYVVFFLV, the protein stability index in the series with Saccharomyces cerevisiae [1] (setting [3]) is 0.2152 ± 0.00048; in the series on Saccharomyces cerevisiae [1] (setting [4]), 0.344 ± 0.024; with Saccharomyces cerevisiae [1] (setting [5]), 0.248 ± 0.029; in the series with Saccharomyces cerevisiae [1] (setting [6]) it was 0.437 ± 0.028; in the series with Saccharomyces cerevisiae [1] (setting [7]), 0.0993 ± 0.013; with Saccharomyces cerevisiae [1] (setting [8]), 0.109 ± 0.018. Moreover, the protein stability index in the series on Saccharomyces cerevisiae [1] (setting [9]) is 0.154 ± 0.0063; with Saccharomyces cerevisiae [2], 0.211 ± 0.0088.
VFCPRACWEFVG: the protein stability index in the series with Saccharomyces cerevisiae [1] (setting [3]) came to 0.567 ± 0.041; with Saccharomyces cerevisiae [1] (setting [4]) it was 0.737 ± 0.027; with Saccharomyces cerevisiae [1] (setting [5]) it was 0.649 ± 0.021; in the series with Saccharomyces cerevisiae [1] (setting [6]) it was 0.7777 ± 0.0067; in the series with Saccharomyces cerevisiae [1] (setting [7]), 0.12 ± 0.0079; in the series on Saccharomyces cerevisiae [1] (setting [8]), 0.143 ± 0.0095. The results for the protein stability index in the series with Saccharomyces cerevisiae [1] (setting [9]) and in the series with Saccharomyces cerevisiae [2] were 0.213 ± 0.0029 and 0.222 ± 0.034, respectively.
